Usually stoichiometry N stands for the number of molecules, sites or subunits per partner or assembly.

The text below walks through data of article PMC2615626.

This test addresses Sulfolobus solfataricus 50S ribosomal subunit (S. solfataricus (endogenous in S. solfataricus cells)) (UniProt P55858). In words: co-sedimentation.
Chain of UniProt P55858 (P55858 whole entry, looked up, tested part not stated): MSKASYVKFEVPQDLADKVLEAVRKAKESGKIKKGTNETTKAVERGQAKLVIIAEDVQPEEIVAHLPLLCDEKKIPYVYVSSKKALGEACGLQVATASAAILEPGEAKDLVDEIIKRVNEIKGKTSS

As to “recombinant Sulfolobus solfataricus aIF6, His-tagged (natural protein)”, the stoichiometry N worked out at 1 aIF6 per 50S.
